B1: library; numbered along this chain (parent)
chain: MRKPRAAVGSGHRKQAASQEGRQKHAKNNSQAKPSACDGLARQPEEVVLQASVSSYHLFRDVAEVTAFRGSLLSWYDQEKRDLPWRRRAEDEMDLDRRAYAVWVSEVMLQQTQVATVINYYTGWMQKWPTLQDLASASLEEVNQLWAGLGYYSRGRRLQEGARKVVEELGGHMPRTAETLQQLLPGVGRYTAGAIASIAFGQATGVVDGNVARVLCRVRAIGADPSSTLVSQQLWGLAQQLVDPARPGDFNQAAMELGATVCTPQRPLCSQCPVESLCRARQRVEQEQLLASGSLSGSPDVEECAPNTGQCHLCLPPSEPWDQTLGVVNFPRKASRKPPREESSATCVLEQPGALGAQILLVQRPNSGLLAGLWEFPSVTWEPSEQLQRKALLQELQRWAGPLPATHLRHLGEVVHTFSHIKLTYQVYGLALEGQTPVTTVPPGARWLTQEEFHTAAVSTAMKKVFRVYQGQQPGTCMGSKRSQVSSPCSRKKPRMGQQVLDNFFRSHISTDAHSLNSAAQ

Variants of: B1
Experiment: 8OG:A repair function score (normalized; synonymous = 0, nonsense = -1) (normalized log-likelihood score); higher = more repair activity (WT-like)
Details: with 8OG:A DNA repair reporter (GFP) in HEK-293 MUTYH KO cells
Procedure, shortened: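 After 72 h, viable mCherry+ cells were split into GFP+ (repair) and GFP− bins in three replicates per tile. These cells were MUTYH knockout HEK-293 cells holding lentiviral MUTYH cDNA NNN codon-scan libraries, kept in 10 pg/ml doxycycline and co-transfected with mCherry plus an 8OG:A GFP repair reporter. Sequencing of tile amplicons gave per-tile Rosace fitness scores, normalized into a repair function score anchored on synonymous and nonsense distributions. Synonymous medians were fixed at 0, nonsense at -1, and variants under 300 counts per million at the start were removed.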
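Note: cells sorted at 72 h after reporter transfection.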

8OG:A repair function score: each site, then its substitutions
P443: E -0.318, H 0.055, Q 0.0864, F 0.179, L 0.058, I 0.0878, A 0.0799, K -0.324, M 0.0448, C -9.64e-05, D -0.00467, N 0.222, G -0.0689
Q426: D -0.46, H -0.0882, I -0.057, W -0.215, V -0.068, F -0.17, M -0.183, S -0.0807, E -0.28, T -0.247, G -0.158, L -0.0573, N -0.05, R -0.143, Y 0.0116, K 0.106, P -0.928
V441: A -0.0435, M 0.176, H -0.533, T -0.0387, D -0.144, I -0.0341, F -0.0997, R -0.293, S -0.0467, E -0.161, P -0.0374, C -0.261, N -0.259, G -0.221, W -0.278, Q -0.259, K -0.215, L -0.0169, Y -0.0452
E433: L -0.0355, K -0.0112, Y -0.0863, W -0.393, I 0.00922, S 0.0139, N -0.0644, Q 0.165, V -0.164, D -0.241, P 0.219, T -0.00904, C -0.179, M -0.0329, F -0.199, H -0.0353, A 0.0651, G 0.00508, R 0.0685
T440: W -0.105, H -0.111, Q -0.0653, K 0.0852, G -0.145, M -0.109, E 0.0718, V -0.0931, D -0.0869, N -0.313, F 0.0139, R -0.0347, S 0.0249, Y 0.157, C 0.0206, A -0.131, P -0.041, L -0.194, I -0.117
Y428: T -1.1, E -1.1, D -1.09, A -1.05, C -0.883, G -1.13, P -1.18, K -0.832, W 0.228, S -0.915, V -1.03, Q -1.2, L -0.828, R -1.14, H -0.753, I -1.03, N -1.01, F -0.153, M -0.656
G429: L -0.125, N -0.133, K -0.404, Y -0.0542, C 0.227, T -0.219, S -0.131, V -0.00866, E -0.296, F 0.209, D -0.382, M -0.288, Q -0.283, H -0.299, I -0.0856, R -0.355, P -1.12, W -0.114, A 0.031
A431: I 0.0332, W -0.13, V -0.0559, H 0.358, K 0.126, D -0.204, Y -0.0701, R -0.0201, S 0.129, Q -0.242, E 0.346, M -0.23, N 0.00246, G -0.211, T -0.0229, F -0.237, C -0.0248, P -0.0943, L 0.0682
T436: D 0.113, V -0.079, F -0.0267, M 0.186, N -0.0228, Q 0.0306, W -0.00145, E -0.16, L 0.548, K -0.201, G -0.0926, C -0.201, R -0.124, A 0.195, I -0.0834, Y 0.0674, P -0.0919, H 0.323, S -0.173
G434: M 0.0898, F 0.125, Y 0.0378, R -0.0648, K 0.22, L -0.158, P -0.0275, A 0.188, T -0.0414, I -0.0439, N -0.392, W 0.0509, V -0.0502, Q -0.0366, H -0.0472, D -0.275, S -0.0544, E 0.0175, C 0.163
L430: R -0.655, I -0.29, S -0.127, H -0.604, Y -0.0889, K -0.617, F 0.0205, Q -0.561, T -0.477, D -0.393, A -0.143, M -0.448, C -0.0232, E -0.36, W 0.0653, G -0.304, P -0.888, N -0.276, V -0.165
V438: W -0.131, N 0.103, R 0.11, C 0.134, I -0.407, K -0.0297, T -0.0976, S -0.176, P 0.0371, G -0.176, H -0.17, F -0.193, L -0.0153, Y -0.0793, D 0.0779, Q 0.187, M -0.252, E 0.281, A 0.149
T439: V 0.0472, L -0.0119, E 0.0225, S -0.0274, H 0.301, C -0.19, D -0.225, M 0.106, Y -0.104, N -0.0163, Q -0.173, P 0.126, I 0.0704, G 0.107, W 0.0448, A 0.0597, F -0.0571, K 0.00137, R -0.0617
P437: T -0.142, K -0.15, Q -0.0348, R -0.174, D -0.128, A -0.00344, W 0.078, M -0.528, H 0.0786, S -0.0348, N -0.284, V -0.0519, G 0.136, Y -0.351, L -0.197, I -0.277, F -0.282, E 0.0852, C -0.244
L432: A -0.541, C 0.0294, T -0.151, Q -0.604, P -0.514, R -0.334, D -0.57, M -0.284, H -0.223, W 0.0604, S -0.284, V -0.118, Y -0.499, K -0.608, F -0.116, N -0.504, G -0.302, E -0.542, I -0.208
Q435: W -0.125, I 0.00734, F -0.052, R 0.0382, V -0.157, Y 0.0772, H 0.148, P 0.288, S 0.261, M 0.051, L 0.0233, T 0.028, E -0.132, C 0.293, K 0.0819, D 0.0234, G -0.0569, A -0.0344, N -0.138
P442: A -0.19, S 0.00212, Q 0.213, C -0.141, K -0.261, R -0.0654, L -0.12, F -0.0534, G -0.171, N -0.426, M 0.0715, E -0.177, H 0.0816, V -0.0512, Y -0.28, D -0.0873, I -0.0279, W -0.205, T -0.0315
V427: T -0.409, R -1.04, Y -1.2, A -0.455, S -0.925, F -1.1, N -1.15, I -0.18, P -1.13, Q -1.16, C -0.195, H -1.08, E -1.24, G -1.03, K -1.06, M -0.599, W -0.831, D -1.2, L -0.345
